Legend:
[1] = tested on: TALED psaA Left (TALE array-split DddAtox/TadA-derived AD) (synthetic construct); assay: cell_activity; conditions: pair with P4; A6 14.66 and 12.27, A5 10.67 and 7.68; lettuce protoplasts 7 days after mRNA; callus A5 8.4 and 7.5, A6 12.2 and 10.0
[2] = tested on: TALED psaA Right (TALE array-split DddAtox/TadA-derived AD) (synthetic construct); assay: cell_activity; conditions: pair with P3; A6 14.66 and 12.27, A5 10.67 and 7.68; lettuce protoplasts 7 days after mRNA

Row | Substance | activity [1] [% editing] | activity [2] [% editing]
1 | lettuce chloroplast psaA start codon, left half-site | 14.7 | 
2 | lettuce chloroplast psaA start codon, right half-site |  | 14.7

Source: patent US20250223606
